# According to US20220162261A1 (published 2022):
# Numbered stars: 1 amine (or outer) side, 2 acyl side, 3 side chain; on linkers, the order of the positions; unused ones are H or OH. Bridge positions count the residues as written; N and C are the ends. Square brackets hold non-standard residues; d marks the D form. Primed or numbered codes have the meaning given here. Ends that are not written are not given here. * marks the point of attachment. Phe(4-OMe)″ = 4-methoxy-phenylalanine, COc1ccc(C[C@H](N[*:1])C(=O)[*:2])cc1; Phe(4-CF3) = N[C@@H](Cc1ccc(C(F)(F)F)cc1)C(=O)O; Phe(4-COOH) = N[C@@H](Cc1ccc(C(=O)O)cc1)C(=O)O; Phe(4-tBu) = CC(C)(C)c1ccc(C[C@H](N)C(=O)O)cc1; Phe(2,4-Cl2) = N[C@@H](Cc1ccc(Cl)cc1Cl)C(=O)O; Phe(2-CONH2) = NC(=O)c1ccccc1C[C@H](N)C(=O)O; Phe(4-CN) = N#Cc1ccc(C[C@H](N)C(=O)O)cc1; Phe(4-F) = N[C@@H](Cc1ccc(F)cc1)C(=O)O; Oleoyl = CCCCCCCC/C=C\CCCCCCCC(=O)*; NMeR = CN[C@@H](CCCNC(=N)N)C(=O)O; Palmitoyl = CCCCCCCCCCCCCCCC(=O)*; Myristoyl = CCCCCCCCCCCCCC(=O)*; Tic = O=C(O)[C@@H]1Cc2ccccc2CN1; β3hE = N[C@@H](CCC(=O)O)CC(=O)O; DIG = diglycolic acid (linker); Pen = CC(C)(S)[C@H](N)C(=O)O; Isovaleryl = CC(C)CC(=O)*; Hexanoyl = CCCCCC(=O)*
# B1: SEQ ID NO: 193 (peptide)
# peptide: Ac-[Pen][NMeR]SDDL[Pen][Phe(4-tBu)][β3hE][dK]-NH2
# modifications: disulfide 1-7; also: homodimer via IDA linker on D-Lys10 side chains, Alexa-647 label
# B2: SEQ ID NO: 5 (peptide)
# peptide: Ac-[dK]C[NMeR]SDTLCW[dK]-NH2
# modifications: disulfide 2-8 (inferred); not fully specified; printed as DIG (Ac k C N-Me-R S D T L C W k NH2)2 DIG
# notes: DIG printed at both ends
# B3: SEQ ID NO: 128 (peptide)
# peptide: Ac-[Pen][NMeR]SDTL[Pen]WE-OH
# modifications: disulfide 1-7
# SMILES: CC(=O)N[C@@H]1C(=O)N(C)[C@@H](CCCNC(=N)N)C(=O)N[C@@H](CO)C(=O)N[C@@H](CC(=O)O)C(=O)N[C@@H]([C@@H](C)O)C(=O)N[C@@H](CC(C)C)C(=O)N[C@H](C(=O)N[C@@H](Cc2c[nH]c3ccccc23)C(=O)N[C@@H](CCC(=O)O)C(=O)O)C(C)(C)SSC1(C)C
# B4: SEQ ID NO: 77 (peptide)
# peptide: XRSDTLXWK
# modifications: not fully specified; (Ac Pen N-Me-R S D T L Pen W N-Me-K NH2)2 DIG; disulfide Pen-Pen
# B5: SEQ ID NO: 6 (peptide)
# peptide: C[NMeR]SDTLCW-NH2
# modifications: disulfide 1-7 (inferred); not fully specified (N-terminus); printed as DIG NH2 C N-Me-R S D T L C W NH2; also: N-terminal DIG linker, number of subunits not shown
# notes: N-terminal linker printed without dimer brackets
# B6: SEQ ID NO: 7 (peptide)
# peptide: [Pen][NMeR]SDTL[Pen][dF]-NH2
# modifications: disulfide 1-7; not fully specified (N-terminus); printed as DIG NH2 Pen N-Me-R S D T L Pen f NH2, disulfide Pen-Pen; also: DIG linker at N-terminus, number of subunits not shown
# notes: as for B5
# B7: SEQ ID NO: 93 (peptide)
# peptide: Ac-[Pen][NMeR]SDTLC[Tic][dE][dK](DIG)-NH2
# modifications: disulfide 1-7; also: homodimer (…)2 DIG: the two subunits are joined through the K10 NZ by the DIG linker
# B8: SEQ ID NO: 98 (peptide)
# peptide: Ac-[Pen][NMeR]SDTL[Pen][Phe(2-CONH2)][dE][dK]-NH2
# modifications: disulfide 1-7; not fully specified (residue 10); printed as (Ac Pen N-Me-R S D T L Pen F(2-carbamoyl) e k NH2)2 DIG, disulfide Pen-Pen; also: homodimer (…)2 DIG: the two subunits are joined through the K10 NZ by the DIG linker
# B9: SEQ ID NO: 100 (peptide)
# peptide: Ac-[Pen][NMeR]SDTL[Pen][Phe(4-COOH)][dE][dK]-NH2
# modifications: disulfide 1-7; not fully specified (residue 10); printed as (Ac Pen N-Me-R S D T L Pen F(4-COOH) e k NH2)2 DIG; also: homodimer: two subunits joined by DIG linker
# B10: SEQ ID NO: 101 (peptide)
# peptide: Ac-[Pen][NMeR]SDTL[Pen][Phe(2,4-Cl2)][dE][dK]-NH2
# modifications: disulfide 1-7; not fully specified (residue 10); also: homodimer: two subunits joined by DIG linker
# notes: F(2,4-ci) as printed
# B11: SEQ ID NO: 103 (peptide)
# peptide: Ac-[Pen][NMeR]SDTL[Pen][Phe(4-OMe)″][dE][dK]-NH2
# modifications: disulfide 1-7; not fully specified (residue 10); printed as (Ac Pen N-Me-R S D T L Pen F(4-OMe) e k NH2)2 DIG; also: homodimer: two subunits joined by DIG linker
# B12: SEQ ID NO: 106 (peptide)
# peptide: Ac-[Pen][NMeR]SDTL[Pen][Phe(4-tBu)][dE][dK]-NH2
# modifications: disulfide 1-7; not fully specified (residue 10); printed as (Ac Pen N-Me-R S D T L Pen F(4tBu) e k NH2)2 DIG, disulfide Pen-Pen; also: homodimer: two subunits joined by DIG linker
# B13: SEQ ID NO: 107 (peptide)
# peptide: Ac-[Pen][NMeR]SDTL[Pen][Phe(4-F)][dE][dK]-NH2
# modifications: disulfide 1-7; not fully specified (residue 10); printed as (Ac Pen N-Me-R S D T L Pen F(4-F) e k NH2)2 DIG, disulfide Pen-Pen; also: homodimer: two subunits joined by DIG linker
# B14: SEQ ID NO: 122 (peptide)
# peptide: Ac-[Pen][NMeR]SDTL[Pen][Phe(4-CF3)][dE][dK]-NH2
# modifications: disulfide 1-7; not fully specified (residue 10); printed as (Ac Pen N-Me-R S D T L Pen F(4CF3) e k NH2)2 DIG, disulfide Pen-Pen; also: homodimer: two subunits joined by DIG linker
# B15: SEQ ID NO: 139 (peptide)
# peptide: Ac-[Pen][NMeR]SDTL[Pen][Phe(4-CN)][β3hE][dK]-NH2
# modifications: disulfide 1-7; not fully specified (residue 10); printed as (Ac Pen N-Me-R S D T L Pen F(4-CN) b-H-E k NH2)2 DIG, disulfide Pen-Pen; also: homodimer, two subunits joined by DIG linker
# B16: SEQ ID NO: 20 (peptide)
# peptide: C[NMeR]SDTL[Pen]W-NH2
# modifications: disulfide 1-7; not fully specified (N-terminus); printed as PEG13 NH2 C N-Me-R S D T L Pen W NH2, disulfide C-Pen; also: N-terminal PEG13 linker, number of subunits not shown
# notes: as for B5
# Target: T1, human α4β7 integrin on cells (human, UniProt P13612 34-1032; P26010 20-798)
# T1 construct: whole, on cells; also called α4β7 cell (Hu); RPMI8866 cells
# Experiment: RPMI8866 cell adhesion to MAdCAM-1
row,Binder,IC50
1,Ac-[Pen][NMeR]SDTQ[Pen][Phe(4-tBu)][β3hE][dK]-NH2 (disulfide 1-7; also: homodimer: two subunits joined by IDA linker) [SEQ ID NO: 187],> 100 nM
2,Ac-[Pen][NMeR]SDIL[Pen][Phe(4-tBu)][β3hE][dK]-NH2 (disulfide 1-7; also: homodimer via IDA linker carrying Alexa-647) [SEQ ID NO: 188],≤ 10 nM
3,Ac-[Pen][NMeR]SDDL[Pen][Phe(4-tBu)][β3hE][dK]-NH2 (disulfide 1-7; also: homodimer via IDA linker on D-Lys10 side chains) [SEQ ID NO: 191],> 10000 nM
4,B1,> 100000 nM
5,B2,> 50 nM
6,B3,> 50 nM
7,XRSDTLXWK (not fully specified; (Ac Pen N-Me-R S D T L Pen W k OH)2 DIG; disulfide Pen-Pen) [SEQ ID NO: 76],> 10 nM
8,B4,> 100 nM
9,B5,> 50 nM
10,B6,> 1000 nM
11,XRSDTLXW (Ac Pen N-Me-R S D T L Pen W OH; disulfide Pen-Pen) [SEQ ID NO: 127],> 100 nM
12,B7,> 500 nM
13,B8,> 50 nM
14,B9,≤ 10 nM
15,B10,> 50 nM
16,B11,> 25 nM

row,Binder,IC50
1,B12,≤ 10 nM
2,B13,> 25 nM
3,B14,> 50 nM
4,B15,≤ 10 nM
5,"Ac-[Pen][NMeR]SDTL[Pen][Phe(4-tBu)][β3hE][dK](4,4,4‑trifluorobutyryl) (disulfide 1-7) [SEQ ID NO: 169]",> 10 nM
6,Ac-[Pen][NMeR]SDTL[Pen][Phe(4-tBu)][β3hE][dK](Hexanoyl) (disulfide 1-7) [SEQ ID NO: 170],> 10 nM
7,Ac-[Pen][NMeR]SDTL[Pen][Phe(4-tBu)][β3hE][dK](Isovaleryl) (disulfide 1-7) [SEQ ID NO: 171],> 10 nM
8,Ac-[Pen][NMeR]SDTL[Pen][Phe(4-tBu)][β3hE][dK](Palmitoyl) (disulfide 1-7) [SEQ ID NO: 172],965 nM
9,Ac-[Pen][NMeR]SDTL[Pen][Phe(4-tBu)][β3hE][dK](Oleoyl) (disulfide 1-7) [SEQ ID NO: 174],> 1000 nM
10,Ac-[Pen][NMeR]SDTL[Pen][Phe(4-tBu)][β3hE][dK](Myristoyl) (disulfide 1-7) [SEQ ID NO: 175],> 500 nM
11,Hexanoyl-[Pen][NMeR]SDTL[Pen][Phe(4-tBu)][β3hE][dK]-NH2 (disulfide 1-7) [SEQ ID NO: 176],> 50 nM
12,Isovaleryl-[Pen][NMeR]SDTL[Pen][Phe(4-tBu)][β3hE][dK]-NH2 (disulfide 1-7) [SEQ ID NO: 177],> 50 nM
13,Palmitoyl-[Pen][NMeR]SDTL[Pen][Phe(4-tBu)][β3hE][dK]-NH2 (disulfide 1-7) [SEQ ID NO: 178],> 1000 nM
14,B16,> 50 nM
15,Oleoyl-[Pen][NMeR]SDTL[Pen][Phe(4-tBu)][β3hE][dK]-NH2 (disulfide 1-7) [SEQ ID NO: 180],> 1000 nM
16,Myristoyl-[Pen][NMeR]SDTL[Pen][Phe(4-tBu)][β3hE][dK]-NH2 (disulfide 1-7) [SEQ ID NO: 181],> 1000 nM
